Read-outs that look alike come from different tables or passages of the source.
Key:
[1] = biological target: GAN·GINS complex of Thermococcus kodakarensis, formed on the SPR chip from the purified recombinant proteins (Thermococcus kodakarensis); experiment: SPR
[2] = biological target: GAN·GINS complex of Thermococcus kodakarensis, formed on the SPR chip from the purified recombinant proteins (Thermococcus kodakarensis); experiment: SPR; remark: listed apart in the source

Kd [1]: 0.18 µM
Kd [2]: 0.19 µM
Substance: MCM3 (minichromosome maintenance helicase) of Thermococcus kodakarensis, homohexamer, recombinant (enzyme)

Reference: paper PMC5737688
